Experiment: soluble on expression in E. coli; label from the status in PepcDB or PDB records

Sequence	soluble on expression in E. coli
MAHHHHHHMASVSSGVPLTAPSAQKLLQSVKYILLDVDGVVWSGPRVLPNIPQTLQYLRSLGKEIRFLTNNASVSRSSLAQLFRQRGIEGVKESEVYNSGYAAALRLRRICGAAEGNQERQEGNEPTSDKRLVRGNVFVIGEEGLHEELQRVLAPGYITYGMELHDAEKVGGYNSANAATAWKERILPAPLRQLKPPDGITDYGRGISLTDLSPVAVVVGLDLHFNMLKLAYASLCLHRGAGSNTDSEGDRIGGDRDRTPDKGLQKPVCFIATNEDPQIPIGEEGLLLPGAGGMVSALRTVSGRNPDAVCGKPHVDMARIMFEAEGITDARQCLMVGDRLTTDIAFGNAAGCRTLFVLSGAESMADIARAKSTGDSQLLPEFVAPSLASLMPDARDD	soluble
MKLIIHQKWYLQQVKDTFTNLQAPRLHWALRNALNTAAKQVERFTEKQVADLSSAQIKRIRRGVYIKEKATARFLETDLIGSGTPLPLKFFKAKETKHGVTYTLFGKKQILTHGFIKGGSFPKRVDLKMGGNVFQRDDGDQFPIAKQEGPSIAKVMSKPEIASAIAQYANERLTKNIQRQLARQEYAANKKG	not soluble
SSVLLRPILPEDEPKHASFISQVSHDDLYKRFFSEVGEFNHEALANFTQIDYDREMAFVATKQIDGEEIIIAVVRALSDPNHTNTEFAVLVRSDLKGLGLGKILMEKIIRYCQSIGIKVMTGMTMPANHGMIGLAQHLGFSVDIQMSDGVVDMFLEL	not soluble
DELCVVCGDKATGYHYRCITCEGCKGFFRRTIQKNLHPSYSCKYEGKCVIDKVTRNQCQECRFKKCIYVGMATDLVLDDSKRLAKRKLIEENREKRRREELEK	soluble
MGSDKIHHHHHHVLKELNQLMDHIERHLTEELSGMDIVRITGVSEYHFRRMFSYMSGMTLNEYIRNRRLSQANINLVNQHSVTEVAYEYGYQSIEGFSRAFREWSGFLPSEVIKNKIQKSFPRFTFYIDIKGGVSMEFKIERKSQFHVVGVSKRVPIQFEGVNHSIVELAQSITPQQRQEMQQLADLYPETVLNVSFDFDEGYLEEQGSLTHMIGFATSRQNPYGDLEQITIEDSLWAVFPNTGPFPQMLQETMAKTYAEWLPTSGYELVDLPSILFTNHEDDSLNVYSEVWVPVKEKTTS	not soluble
MGSDKIHHHHHHMPPLDLTHIRQHHTVAELIALGKARRQVTPFEKLGTFTPVKRNASDYLKHVREMLVPELLPLRRERMSASAFAFFRGSVELMDYDLDYQSSTEIPAVVCGDAHIGNFGFYASPERRLVFDLNDFDEAGVHPWEWDLRRLLVSVLLAARDSNFKPKKVEKLIQAASASYREALKRMFDQTTLDRFYRDNEVQAVLNFGGAPEDTADLIASLVKKAQKRNSEQVVRKFTVTNSRGERQFKENAPRSVHIDRQTYQGLKAGISEYLLNVRTDVALLLSQYEVTDIIRHSVGVGSFGSLCYLVLLTSTDGSHMVLQIKEALPTRKVGSQSRPALTAAMELTEGQRIVSSQRILQATSDAFLGYFQMENKSFYVRQFRDMKESIDIPTLDWGQFQAYANTCAMILAKAHAQSPTAAMIRGYVGNSAKFDEAMAKWATAYVEQVDNDYQDFLDV	not soluble
MNTLVLPKTQHLVVFQEVIRSGSIGSAAKSLGLTQPAVSKIISDVEAYFGVELIVRKNTGVTLTEAGQVLLSWSESITREMKNMINEMNSMTCNTVVDVSFGFPSLIGFTFMSDMIHKFKEVFPKAQVSMYEAQLSSFLPALRDGRLDFAIGTLSNEMQLQDLHVEPLFESEFVLVASKSRTCTGTITLESLKDEQWVLPQTNMGYYSELLTTLQRNGISIENIVKTDSVVTIYNLVLNADFLTVIPCDMTTPFGSNQFITIPIQDTLPVARYAAVWSKNYRIKKAASVLVELAKQYSSYNGCRRRQLIEIE	soluble
MKTSSYLLKAGVDYPTNWDEFVDWFHDEQSCTSYLYALRWPNGFICPSCSSHQSPYQLSNGKLKCHACRFQCSVTSSTLFDKTRTPMKSWFAAVWFITNQKNGVSALGVQRLLGLGSYQTAWSLMHKLRYAMVDPERDKLSGIVEVDETLIGGVIPKSSIKNQQGKRKAIVLVAVELLSPSGFGRIRLRQVESATKEHIHQFIQDVIEPGSTICSDGSQAYKQIDKKGYKHNRMVHLGSSVPAHETMAGVHRVSSLCKRWLLGTYQGAVKAKQLDYYLDEFTFRFNRRKSDSRGLLFYRLLEQAVRSKPITYQSIKNRLEHHHHHH	not soluble
GMPALITYRTTVQEDWVDYNGHLRDAFYLLIFSYATDALMDRIGLDADSRGQSGNSLFTLEAHINYLHEVKLGTEVWVQTQILGFDRKRLHVYHSLHRAGFDEVLAASEQMLLHVDLAGPQSAPFGHTTVCRLNHLVEQQEGAQAPQYMGRTIKLPA	soluble

— the DeepSol protein solubility set
